Consider 16 molecules from publication PMC13276077.

Series [1] has as its target MeCP2 full-length, e2 isoform;histone octamer (Homo sapiens;, UniProt P51608;P0C0S8;P62807;P68431;P62805 1-486;2-130;2-126;2-136;2-103, |H2B T115C;H3.1 C96S;C110A). As to the kind of experiment: EMSA; 20 mM HEPES pH 7.5, 75 mM NaCl, 125 mM KCl, 50 uM EDTA, 2.5 mM beta-mercaptoethanol, 5% glycerol, BSA, 1.58 uM 47 bp competitor DNA (nucleosome assays); absent w.
In series [2] the target is MeCP2 R133G;histone octamer (Homo sapiens;, UniProt P51608;P0C0S8;P62807;P68431;P62805 1-486;2-130;2-126;2-136;2-103, R133G|H2B T115C;H3.1 C96S;C110A). Described as above.
Series [3] concerns the target MeCP2 AT-DIRmut;histone octamer (Homo sapiens;, UniProt P51608;P0C0S8;P62807;P68431;P62805 1-486;2-130;2-126;2-136;2-103, R188G;R190G;K254N;K256N;R268Q|H2B T115C;H3.1 C96S;C110A). The description is as above.
Series [4] has as its target HisMBP-MeCP2 162-309;histone octamer (Homo sapiens;, UniProt P51608;P0C0S8;P62807;P68431;P62805 162-309;2-130;2-126;2-136;2-103, |H2B T115C;H3.1 C96S;C110A). The description is as above.
Series [5] deals with MeCP2 MBD;histone octamer (Homo sapiens;, UniProt P51608;P0C0S8;P62807;P68431;P62805 77-167;2-130;2-126;2-136;2-103, |H2B T115C;H3.1 C96S;C110A). Described as above.
In series [6] the target is MeCP2 full-length, e2 isoform (Homo sapiens, UniProt P51608 1-486). As to the kind of experiment: EMSA; 20 mM HEPES pH 7.5, 75 mM NaCl, 125 mM KCl, 50 uM EDTA, 2.5 mM beta-mercaptoethanol, 5% glycerol, BSA, 1.58 uM 47 bp competitor DNA (nucleosome assays; absent with free DNA), room temperature 30 min. The settings on record: protein: recombinant, tags: none.
Series [7] addresses MeCP2 full-length, e2 isoform;histone H1.0;histone octamer (Homo sapiens;Homo sapiens;, UniProt P51608;P07305;P0C0S8;P62807;P68431;P62805 1-486;1-194;2-130;2-126;2-136;2-103, ||H2B T115C;H3.1 C96S;C110A). As to the kind of experiment: EMSA; histone H1.0 pre-bound (chromatosome); 20 mM HEPES pH 7.5, 75 mM NaCl, 125 mM KCl, 50 uM EDTA, 2.5 mM beta-mercaptoethanol, 5% glycerol, BSA, 1.58 uM 47 bp competitor DNA (nucleosome assays); absent w.

Residue numbers refer to the chain shown, from its start.

B1: N601-15 nucleosome 81 meCpA (nucleosome)
DNA 1: ATGGAACACATTGCACAGGATGTATATATCTGACACGTGCCTGGAGACTAGGGAGTAATCCCCTTGGCGGTTAAAACGCGGGGGACAGCGCGTACGTGCGTTTAAGCGGTGCTAGAGCTGTCTACGACCAATTGAGCGGCCTCGGCACCGGGATTCTCCA
DNA 2: TGGAGAATCCCGGTGCCGAGGCCGCTCAATTGGTCGTAGACAGCTCTAGCACCGCTTAAACGCACGTACGCGCTGTCCCCCGCGTTTTAACCGCCAAGGGGATTACTCCCTAGTCTCCAGGCACGTGTCAGATATATACATCCTGTGCAATGTGTTCCAT
modifications: asymmetric meCpA at 81
In the case of B1, in series [1], the Kd is 357 nM.

B2: N601-15 nucleosome (single 15 bp linker) (nucleosome)
DNA 1: B1 DNA 1
DNA 2: B1 DNA 2
Take B2: the dissociation constant (Kd) in series [1] turned out to be 419 nM.

B3: 16-N603-30 nucleosome 91 meCpA (nucleosome)
DNA 1: GAGCCACAAAATCACCGACGCTCACGGGTGCCCAGTTCGCGCGCCCACCTACCGTGTGAAGTCGTCACTCGGGCTTCTAAGTACGCTTAGCGCACGGTAGAGCGCAATCCAAGGCTAACCACCGTGCATCGATGTTGAAAGAGGCCCTCCGTCCTTATTACTTCAAGTCCCTGGGGTACCCGTTTCACTGCCA
DNA 2: TGGCAGTGAAACGGGTACCCCAGGGACTTGAAGTAATAAGGACGGAGGGCCTCTTTCAACATCGATGCACGGTGGTTAGCCTTGGATTGCGCTCTACCGTGCGCTAAGCGTACTTAGAAGCCCGAGTGACGACTTCACACGGTAGGTGGGCGCGCGAACTGGGCACCCGTGAGCGTCGGTGATTTTGTGGCTC
modifications: asymmetric meCpA at 91
B3: the Kd in series [1] was 57.1 nM; in series [2], 162 nM; in series [3], 25.3 nM; in series [4] it was 103 nM; in series [5], 85.7 nM.

B4: 16-N603-30 +81 CG free DNA 81 meCpG (dsDNA)
DNA 1: B3 DNA 1 with T22C, A24G, C25G
DNA 2: B3 DNA 2 with G169C, T170C, A172G
modifications: meCpG at 81
With B4, the Kd in series [6] (blunt) amounted to 23.8 ± 1.2 nM.

B5: 16-N603-30 free DNA 81 meCpA (dsDNA)
DNA 1: B3 DNA 1
DNA 2: B3 DNA 2
modifications: asymmetric meCpA at 81
As for B5, the equilibrium dissociation constant (Kd) in series [6] (label: 5' 6-FAM) was determined as 27.1 ± 1.8 nM.

B6: 16-N603-30 +91 CG free DNA 91 meCpG (dsDNA)
DNA 1: B3 DNA 1 with T12C, A14G, C15G
DNA 2: B3 DNA 2 with G179C, T180C, A182G
modifications: meCpG at 91
With B6, in series [6] (blunt), the Kd was 24.6 ± 1.7 nM.

B7: 16-N603-30 free DNA unmethylated (dsDNA)
DNA 1: B3 DNA 1
DNA 2: B3 DNA 2
In the case of B7, the Kd in series [6] (label: 5' 6-FAM) stood at 46.2 ± 2.8 nM.

B8: 16-N603-30 free DNA 91 meCpA (dsDNA)
DNA 1: B3 DNA 1
DNA 2: B3 DNA 2
modifications: asymmetric meCpA at 91
Take B8: the Kd in series [6] (blunt) is 27.8 ± 1.9 nM.

B9: 16-N603-30 +91 CG nucleosome 91 meCpG (nucleosome)
DNA 1: B3 DNA 1 with T12C, A14G, C15G
DNA 2: B3 DNA 2 with G179C, T180C, A182G
modifications: meCpG at 91
In series [1], B9 gave a dissociation constant (Kd) of 71.3 nM.

B10: 16-N603-30 nucleosome 81 meCpA (nucleosome)
DNA 1: B3 DNA 1
DNA 2: B3 DNA 2
modifications: asymmetric meCpA at 81
Consider B10, for which the Kd in series [1] is 65.3 nM; in series [3], 42.2 nM; in series [5] it was 268 nM.

B11: 16-N603-30 +81 CG nucleosome 81 meCpG (nucleosome)
DNA 1: B3 DNA 1 with T22C, A24G, C25G
DNA 2: B3 DNA 2 with G169C, T170C, A172G
modifications: meCpG at 81
For the molecule B11, the Kd in series [1] stood at 65.5 nM.

B12: N601 nucleosome core particle -61 meCpG (nucleosome)
DNA 1: CAGGATGTATATATCTGACACGTGCCTGGAGACTAGGGAGTAATCCCCTTGGCGGTTAAAACGCGGGGGACAGCGCGTACGTGCGTTTAAGCGGTGCTAGAGCTGTCTACGACCAATTGAGCGGCCTCGGCACCGGGATTCTCCA
DNA 2: TGGAGAATCCCGGTGCCGAGGCCGCTCAATTGGTCGTAGACAGCTCTAGCACCGCTTAAACGCACGTACGCGCTGTCCCCCGCGTTTTAACCGCCAAGGGGATTACTCCCTAGTCTCCAGGCACGTGTCAGATATATACATCCTG
modifications: meCpG at -61
With B12, the binding result in series [1] is on record as “no binding”.

B13: 15-N601-15 nucleosome -1 meCpG (nucleosome)
DNA 1: ATGGAACACATTGCACAGGATGTATATATCTGACACGTGCCTGGAGACTAGGGAGTAATCCCCTTGGCGGTTAAAACGCGGGGGACAGCGCGTACGTGCGTTTAAGCGGTGCTAGAGCTGTCTACGACCAATTGAGCGGCCTCGGCACCGGGATTCTCCAGGGCGGCCGCGTATT
DNA 2: AATACGCGGCCGCCCTGGAGAATCCCGGTGCCGAGGCCGCTCAATTGGTCGTAGACAGCTCTAGCACCGCTTAAACGCACGTACGCGCTGTCCCCCGCGTTTTAACCGCCAAGGGGATTACTCCCTAGTCTCCAGGCACGTGTCAGATATATACATCCTGTGCAATGTGTTCCAT
modifications: meCpG at -1
Turning to B13, the binding result in series [7] is on record as “no binding”. Besides, the dissociation constant Kd in series [1] was determined as 130 nM; in series [2] it was 522 nM; in series [3] it was 71.3 nM; in series [5] it was 812 nM.

B14: 15-N601-15 free DNA unmethylated (dsDNA)
DNA 1: B13 DNA 1
DNA 2: B13 DNA 2
With B14, the Kd in series [6] (label: 5' 6-FAM, blunt) was found to be 75.9 ± 4.2 nM.

B15: 15-N601-15 free DNA -1 meCpG (dsDNA)
DNA 1: B13 DNA 1
DNA 2: B13 DNA 2
modifications: meCpG at -1
For B15, the Kd in series [6] (label: 5' 6-FAM, blunt) is 45.3 ± 2 nM.

B16: 15-N601-15 free DNA -61 meCpG (dsDNA)
DNA 1: B13 DNA 1
DNA 2: B13 DNA 2
modifications: meCpG at -61
For the molecule B16, the Kd in series [6] (label: 5' 6-FAM, blunt) is 50.5 ± 1.9 nM.
